Bridge positions count the residues as written; N and C are the ends. Square brackets hold non-standard residues; d marks the D form. Ends that are not written are not given here. Lys(N3) = [N-]=[N+]=NCCCC[C@H](N)C(=O)O; Pra = C#CC[C@H](N)C(=O)O
Assays:
[1] = target: T1, biotinylated recombinant human αvβ8 integrin (human, UniProt P06756 31-1048; P26012 43-684, biotin (chain and site not stated) | biotin (chain and site not stated)); assay: ELISA; competition with latent TGFβ1
T1 chain 1: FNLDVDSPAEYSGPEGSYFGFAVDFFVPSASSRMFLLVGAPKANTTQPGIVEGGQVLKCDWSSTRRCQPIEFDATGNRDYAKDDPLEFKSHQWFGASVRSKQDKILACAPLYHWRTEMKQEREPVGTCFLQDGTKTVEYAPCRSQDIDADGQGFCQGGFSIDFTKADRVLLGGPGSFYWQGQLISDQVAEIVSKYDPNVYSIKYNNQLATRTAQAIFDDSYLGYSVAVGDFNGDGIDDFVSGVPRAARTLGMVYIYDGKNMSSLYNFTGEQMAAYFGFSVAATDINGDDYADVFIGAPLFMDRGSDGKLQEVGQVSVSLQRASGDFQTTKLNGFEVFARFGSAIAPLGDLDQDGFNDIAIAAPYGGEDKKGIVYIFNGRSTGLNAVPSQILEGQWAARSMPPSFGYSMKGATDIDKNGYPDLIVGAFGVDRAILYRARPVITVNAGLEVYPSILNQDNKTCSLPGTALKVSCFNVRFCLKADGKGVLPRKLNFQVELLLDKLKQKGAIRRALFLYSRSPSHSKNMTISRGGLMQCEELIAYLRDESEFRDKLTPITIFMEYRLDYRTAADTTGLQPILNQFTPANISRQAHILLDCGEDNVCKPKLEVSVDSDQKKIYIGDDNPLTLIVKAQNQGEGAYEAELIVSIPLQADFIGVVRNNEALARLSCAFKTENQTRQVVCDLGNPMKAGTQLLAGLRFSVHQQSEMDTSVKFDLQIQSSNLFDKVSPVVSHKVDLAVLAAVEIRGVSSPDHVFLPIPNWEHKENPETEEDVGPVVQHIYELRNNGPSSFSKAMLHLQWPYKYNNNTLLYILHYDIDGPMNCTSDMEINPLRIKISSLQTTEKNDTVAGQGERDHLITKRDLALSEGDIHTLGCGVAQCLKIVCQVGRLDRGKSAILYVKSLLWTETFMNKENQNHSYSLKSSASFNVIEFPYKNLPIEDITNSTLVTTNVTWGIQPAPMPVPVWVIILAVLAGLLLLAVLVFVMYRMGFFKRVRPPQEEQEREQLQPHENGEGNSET
T1 chain 2: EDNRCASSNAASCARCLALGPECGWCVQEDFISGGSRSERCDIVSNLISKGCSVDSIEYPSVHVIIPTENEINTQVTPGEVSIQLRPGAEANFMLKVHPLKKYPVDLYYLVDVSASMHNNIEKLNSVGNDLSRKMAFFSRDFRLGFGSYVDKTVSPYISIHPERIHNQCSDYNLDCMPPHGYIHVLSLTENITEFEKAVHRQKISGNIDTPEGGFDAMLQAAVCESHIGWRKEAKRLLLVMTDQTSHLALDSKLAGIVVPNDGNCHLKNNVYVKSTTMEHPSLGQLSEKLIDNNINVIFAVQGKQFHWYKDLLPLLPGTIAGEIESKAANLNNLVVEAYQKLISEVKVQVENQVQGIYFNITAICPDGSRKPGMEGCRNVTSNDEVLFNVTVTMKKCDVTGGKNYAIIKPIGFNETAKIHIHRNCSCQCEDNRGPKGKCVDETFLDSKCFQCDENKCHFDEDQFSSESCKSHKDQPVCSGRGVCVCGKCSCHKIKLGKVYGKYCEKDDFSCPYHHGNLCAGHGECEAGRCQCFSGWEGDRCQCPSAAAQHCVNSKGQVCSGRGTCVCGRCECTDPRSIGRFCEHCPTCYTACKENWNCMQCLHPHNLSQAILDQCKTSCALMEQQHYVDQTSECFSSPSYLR

[2] = target: T2, biotinylated recombinant human αvβ6 integrin (human, UniProt P06756 31-1048; P18564 22-709, biotin (chain and site not stated) | biotin (chain and site not stated)); assay: ELISA; competition with latent TGFβ1
T2 chain 1: T1 chain 1
T2 chain 2: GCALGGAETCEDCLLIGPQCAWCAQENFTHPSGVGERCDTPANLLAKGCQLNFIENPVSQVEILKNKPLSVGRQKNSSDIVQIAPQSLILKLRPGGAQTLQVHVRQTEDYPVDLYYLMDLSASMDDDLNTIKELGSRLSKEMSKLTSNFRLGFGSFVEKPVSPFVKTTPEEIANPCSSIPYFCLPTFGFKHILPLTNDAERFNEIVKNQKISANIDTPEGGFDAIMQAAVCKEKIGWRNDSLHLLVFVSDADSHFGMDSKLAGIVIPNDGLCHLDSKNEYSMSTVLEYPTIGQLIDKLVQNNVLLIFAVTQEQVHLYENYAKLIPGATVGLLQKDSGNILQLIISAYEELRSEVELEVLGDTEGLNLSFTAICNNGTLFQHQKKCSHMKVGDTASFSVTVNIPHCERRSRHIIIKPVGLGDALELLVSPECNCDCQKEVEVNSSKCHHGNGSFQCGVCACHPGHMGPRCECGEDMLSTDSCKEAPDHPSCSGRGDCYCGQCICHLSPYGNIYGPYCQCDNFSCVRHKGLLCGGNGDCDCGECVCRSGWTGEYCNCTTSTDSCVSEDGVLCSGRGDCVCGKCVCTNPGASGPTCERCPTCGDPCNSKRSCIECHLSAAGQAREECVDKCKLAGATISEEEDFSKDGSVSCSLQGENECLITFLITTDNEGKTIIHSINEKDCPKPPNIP

Ki [1]: 2.74 nM | Ki [2]: 0.139 nM
B1: peptide 5a (chromogranin A-derived peptide) (peptide)
chain: CFETLRGDLRILSILR[Pra]QNL[Lys(N3)]KELQD-NH2
modifications: triazole 17-21

Source: article PMC11889887 (2025)
